In article PMC4503747 one finds fold increase of precipitated Cdc28 relative to GST-Yih1 in S-G2/M (30, 60 and 90 minutes after release) against cells arrested in G1 with α-factor data, which are given here for one substance.

The target in this test is GST-Yih1[2–258], overexpressed in yeast from a galactose-inducible promoter (S. cerevisiae) (UniProt P25637). Briefly: pull-down; in vivo GST pull-down: GST fusions overexpressed in yeast from a galactose-inducible promoter (yih1Δ strains; gcn1Δ strain H2556 for the fragments; also cells arrested in G1 with α-factor and released), WCE (1-2 mg) on glutathione beads, immunoblot for endogenous proteins. Background: Immunoblotting shows a protein as a band on a membrane.

Several values for one entry are separate records, joined by “and”; a condition that tells them apart may be missing. Identical values can stand only once.

Sequence of GST-Yih1[2–258], overexpressed in yeast from a galactose-inducible promoter (S. cerevisiae) (P25637 2-258): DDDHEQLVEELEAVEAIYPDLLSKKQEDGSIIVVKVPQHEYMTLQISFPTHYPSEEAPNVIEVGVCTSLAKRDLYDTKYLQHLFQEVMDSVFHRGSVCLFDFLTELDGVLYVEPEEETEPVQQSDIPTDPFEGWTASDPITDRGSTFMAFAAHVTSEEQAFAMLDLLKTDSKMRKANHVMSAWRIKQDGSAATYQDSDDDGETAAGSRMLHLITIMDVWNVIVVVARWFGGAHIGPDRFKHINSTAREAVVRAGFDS

Regarding “Cdc28 (endogenous, yeast whole cell extract) (from UniProt P00546 1-298) (natural protein)”, the fold increase of precipitated Cdc28 relative to GST-Yih1 in S-G2/M (30, 60 and 90 minutes after release) against cells arrested in G1 with α-factor was 2 fold and 3 fold.
